The Human Domainome abundance scans (Beltran et al. 2025)
± gives the uncertainty stated by the source.

B1: POU domain, class 5, transcription factor 1, residues 134 to 212; numbered along this chain, Q01860 (parent)
chain: EESQDIKALQKELEQFAKLLKQKRITLGYTQADVGLTLGVLFGKVFSQTTICRFEALQLSFKNMCKLRPLLQKWVEEAD

Variants of: B1
Assay: abundance fitness (aPCA) (normalised: wild type 0, dead -1); higher = more abundant; growth selection in yeast, the domain comes from the species named
Conditions: Homo sapiens

Variant | abundance fitness
EESQDIKALQKELEQFAKLLQQKRITLGYTQADVGLTLGVLFGKVFSQTTICRFEALQLSFKNMCKLRPLLQKWVEEAD [K21Q] | -0.2 ± 0.27
EESQDIKALQKELEQFAKLLKQKRITLGYTQADVGLTLGVLFGKVFSQTTICRFEALQLSFKNKCKLRPLLQKWVEEAD [M64K] | -0.279 ± 0.13
EESQDIKALQKELEQFAKLLKQKRITLGYTKADVGLTLGVLFGKVFSQTTICRFEALQLSFKNMCKLRPLLQKWVEEAD [Q31K] | -0.557 ± 0.34
EESQDIKALQKELEQFAKLLKQKRITLGYTQADVGLTLGVLFGKVASQTTICRFEALQLSFKNMCKLRPLLQKWVEEAD [F46A] | -0.147 ± 0.13
EESQDIKALQKELEQFAKLLKQKRITLGYTQADVGLTLGVLFGKVVSQTTICRFEALQLSFKNMCKLRPLLQKWVEEAD [F46V] | 0.411 ± 0.074
EESQDIKALQKELEQFAKLLKQKRITLGYTQADVGLTLGVLFGKVFSQTTICRFEALQLSFKNMCKLRPLLPKWVEEAD [Q72P] | -0.438 ± 0.21
EESQDIKALQKELEQFAKLLKQKRITLGYTQADVGLTLGVLFGKVFSQTTICRFEALQLSFKNMCKLRPLLCKWVEEAD [Q72C] | -0.09 ± 0.17
EESQDIKALQKELEQFAKLLKQKRITLGYTQADVGLTLGVLFGKVFSQTTICRFEALQLSFKNMCKLRPLLHKWVEEAD [Q72H] | -0.039 ± 0.28
EESQDIKALQKELEQFAKLLKQKRITLGYTQADVGLTLGVLFGKVFSQTTICRFEALQLSFKNMCKLRPLLRKWVEEAD [Q72R] | -0.309 ± 0.096
EESQDIKALQKELEQFAKLLKQKRITLGYTQADVGLTLGVLFGKVFSQTTICRFEALQLSFKNMCKLRPLLEKWVEEAD [Q72E] | 0.342 ± 0.091
EESQDIKALQKELEQFAKWLKQKRITLGYTQADVGLTLGVLFGKVFSQTTICRFEALQLSFKNMCKLRPLLQKWVEEAD [L19W] | -0.181 ± 0.16
EESQDIKALQKELEQFAKLLKQKRITLGYTQADVGLTLGVLMGKVFSQTTICRFEALQLSFKNMCKLRPLLQKWVEEAD [F42M] | -0.607 ± 0.15
EESQDIKALQKELEQFAKLLKQKRITLGYTQADVGLTLGVLFGKVFSQTGICRFEALQLSFKNMCKLRPLLQKWVEEAD [T50G] | -0.601 ± 0.13
EESQDIKALQKELEQFAKLLKQKRITLGYTQADVGLTLGVLFGKVFSQTHICRFEALQLSFKNMCKLRPLLQKWVEEAD [T50H] | 0.017 ± 0.4
EESQDIKALQKSLEQFAKLLKQKRITLGYTQADVGLTLGVLFGKVFSQTTICRFEALQLSFKNMCKLRPLLQKWVEEAD [E12S] | -0.094 ± 0.11
EESQDIKALDKELEQFAKLLKQKRITLGYTQADVGLTLGVLFGKVFSQTTICRFEALQLSFKNMCKLRPLLQKWVEEAD [Q10D] | -0.128 ± 0.18
EESQDIKALFKELEQFAKLLKQKRITLGYTQADVGLTLGVLFGKVFSQTTICRFEALQLSFKNMCKLRPLLQKWVEEAD [Q10F] | 0.117 ± 0.32

Variant | abundance fitness
EESQDIKALQKELEQFAKLLKQKRITLGYTQADVGLTLGVLFGKVFSQTTICRFEALQLSFKNMCKLRPPLQKWVEEAD [L70P] | -0.364 ± 0.22
EESQDIKALQKELEQFAKLLKQKRITLGYTQADVGLTLGVLFGKVFSQTTICRFEALQLSFKNMCKLRPTLQKWVEEAD [L70T] | -0.325 ± 0.23
EESQDIKALQKELEQFAKLLKQKRITLGYTQADVGLTLGVLFGKVFSQTTICRFEALQLSFKNMCKLRPLLQKWVEVAD [E77V] | -0.161 ± 0.12
EESQDIKALQKELEQFAKLLKQKRITLGYTQADVTLTLGVLFGKVFSQTTICRFEALQLSFKNMCKLRPLLQKWVEEAD [G35T] | -0.697 ± 0.42
EESQDIKALQKELEQFAKLLKQKRITLGYTQADVGLTLGVLFGKVFSQTTICRFEALQLSFTNMCKLRPLLQKWVEEAD [K62T] | -0.055 ± 0.19
EESQDIKALQKELEQFAKLLKQKRITLGYTQADVGLTLGVLFGKVFSQTTICRFEALQLSFHNMCKLRPLLQKWVEEAD [K62H] | -0.19 ± 0.36
EESQDIKALQKELEQFAKLLKQKRITLGYTQADVGLTLGVLFGKVFSQWTICRFEALQLSFKNMCKLRPLLQKWVEEAD [T49W] | -0.259 ± 0.15
EESQDIKALQKELEQFAKLLKQKRITLGYTQADVGLTLGVLFGKVFLQTTICRFEALQLSFKNMCKLRPLLQKWVEEAD [S47L] | -0.756 ± 0.35
EESQDIKALQKELEQFAKLLKQKRITLGYTQADVGMTLGVLFGKVFSQTTICRFEALQLSFKNMCKLRPLLQKWVEEAD [L36M] | 0.168 ± 0.15
EESQDIKALQKELEQFAKLLKQKRITLGYTQADVGNTLGVLFGKVFSQTTICRFEALQLSFKNMCKLRPLLQKWVEEAD [L36N] | 0.144 ± 0.21
EESQDIKALQKELEQFAKLWKQKRITLGYTQADVGLTLGVLFGKVFSQTTICRFEALQLSFKNMCKLRPLLQKWVEEAD [L20W] | -0.741 ± 0.38
EESQDEKALQKELEQFAKLLKQKRITLGYTQADVGLTLGVLFGKVFSQTTICRFEALQLSFKNMCKLRPLLQKWVEEAD [I6E] | -0.452 ± 0.17
EESQDIKALQSELEQFAKLLKQKRITLGYTQADVGLTLGVLFGKVFSQTTICRFEALQLSFKNMCKLRPLLQKWVEEAD [K11S] | 0.019 ± 0.12
EESQDIKALQKELEQFAKLLKQKRITLGYTQADVGLELGVLFGKVFSQTTICRFEALQLSFKNMCKLRPLLQKWVEEAD [T37E] | 0.681 ± 0.076
EESQDIKALQKELEQFAKLLKQKRITLGYTQADVGLSLGVLFGKVFSQTTICRFEALQLSFKNMCKLRPLLQKWVEEAD [T37S] | 0.153 ± 0.087
EESQDIKALQKELEQFAKLLKQKRITLGYTQADVGLTLGVLFGKVFSQTTICRVEALQLSFKNMCKLRPLLQKWVEEAD [F54V] | -0.625 ± 0.18
EESQDIKALQKELEQFAKLLKQKRITLGYTQADVGLTLGVLFGKVFSQTTICRFEALQLSFKNMCKLRPLLQKEVEEAD [W74E] | -0.138 ± 0.34
